From paper PMC11286772, “Structural basis of antagonist selectivity in endothelin receptors” (Cell Discovery, 2024) come the findings set out here.

One assay concerns the target T1, ETA WT (Homo sapiens, UniProt P25101).
T1 construct: expressed in transfected cells; host or cells: CHO-K1
T1 sequence (P25101 21-427): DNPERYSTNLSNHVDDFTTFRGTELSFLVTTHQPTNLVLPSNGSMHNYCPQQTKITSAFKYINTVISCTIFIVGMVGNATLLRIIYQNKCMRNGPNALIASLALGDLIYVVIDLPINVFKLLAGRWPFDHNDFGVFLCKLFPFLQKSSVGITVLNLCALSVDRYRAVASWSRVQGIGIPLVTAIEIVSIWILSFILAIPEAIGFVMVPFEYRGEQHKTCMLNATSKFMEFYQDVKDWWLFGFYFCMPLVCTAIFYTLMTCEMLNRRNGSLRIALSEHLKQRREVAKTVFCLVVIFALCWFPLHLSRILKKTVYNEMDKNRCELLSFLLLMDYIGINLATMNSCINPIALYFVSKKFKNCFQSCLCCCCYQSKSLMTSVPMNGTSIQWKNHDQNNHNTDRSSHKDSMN
The experiment in a line: Calcium mobilization assay, antagonist mode (ET-1 stimulated), CHO-K1 cells. Type of assay: cell-based. As for the experimental part:
CHO-K1 cells were cultured in Ham’s F-12K (Kaighn’s) Medium (Gibco-Thermo Fisher Scientific) supplemented with 10% (v/v) fetal bovine serum (FBS; Gibco-Thermo Fisher Scientific), and 100 U/mL Penicillin-Streptomycin (Gibco-Thermo Fisher Scientific) in a humidified incubator at 37 °C with 5% CO2. Cells were seeded in 6-cm dishes overnight; when the density reached 60%–80%, the cells were transferred to F12K Medium supplemented with 10% FBS and transfected with 1.5 μg DNA encoding the ETA WT or mutants or 3 μg DNA encoding the ETB WT or mutants using TransIT2020 (Mirus Biosciences). The next day, transfected cells were harvested from the plate using Versene buffer (Gibco-Thermo Fisher Scientific) and seeded into black-sided, clear-bottomed 384-well plates (Agilent) at a density of 1,5000 cells per well. After 20 h, the 1% dFBS medium was removed, and cells were loaded with 20 μL/well of 1× Calcium 6 dye (Molecular Devices) and incubated at 37 °C for 1 h in the dark. […] All data were analyzed using GraphPad Prism 8 and the data are from at least three independent replicate experiments. All plots are shown as means ± SEM. Data were determined using one-way ANOVA followed by Dunnett’s multiple test compared with WT. The top value was normalized to 100% and the bottom value was normalized to 0% for the final presentation. […]

The target in the next assay is T2, ETA G233^ECL2A (Homo sapiens, UniProt P25101, G233A).
T2 construct: expressed in transfected cells; host or cells: CHO-K1
T2 sequence (P25101 21-427 G233A): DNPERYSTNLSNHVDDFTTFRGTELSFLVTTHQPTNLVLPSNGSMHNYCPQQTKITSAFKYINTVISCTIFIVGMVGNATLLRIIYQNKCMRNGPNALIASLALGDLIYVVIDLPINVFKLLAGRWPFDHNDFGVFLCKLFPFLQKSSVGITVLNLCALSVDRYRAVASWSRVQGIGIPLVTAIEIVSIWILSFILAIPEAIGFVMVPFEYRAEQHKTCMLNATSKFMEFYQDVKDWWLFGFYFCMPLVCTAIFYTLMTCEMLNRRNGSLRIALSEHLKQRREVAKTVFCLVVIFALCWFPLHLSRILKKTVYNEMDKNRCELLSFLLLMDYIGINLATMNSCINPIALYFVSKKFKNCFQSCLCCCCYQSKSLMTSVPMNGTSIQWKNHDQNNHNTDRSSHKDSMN
The assay is described as follows: Size exclusion chromatography analysis of Fab301 binding. As to conditions: ETA G233^ECL2A mutant vs WT. From the text:
(§1) To pinpoint the exact ECL2 residues involved in binding, we performed an extensive alanine scanning mutagenesis. Our size exclusion chromatography analysis identified that the region spanning residues 230^ECL2–235^ECL2 in ETA, and in particularly, residues R232^ECL2 and G233^ECL2, are crucial for Fab301 binding. […] Moreover, the hydrophobic interactions at this interface are crucial for antibody binding, as confirmed by our calcium mobilization assay on Fab301 (Supplementary Fig. S9b). Within this model, E230^ECL2 establishes hydrogen bonds with the CDRL1 and CDRL2 regions of Fab301, whereas Y231^ECL2 and E234^ECL2, together with R232^ECL2, participate in a complex hydrogen bond network within the CDRH3 region of Fab301 (Fig. 6c).
(Size exclusion chromatography separates by hydrodynamic size, large species first.)

The target of the next assay is T3, ETA R232^ECL2A (Homo sapiens, UniProt P25101, R232A).
T3 construct: expressed in transfected cells; host or cells: CHO-K1
T3 sequence (P25101 21-427 R232A): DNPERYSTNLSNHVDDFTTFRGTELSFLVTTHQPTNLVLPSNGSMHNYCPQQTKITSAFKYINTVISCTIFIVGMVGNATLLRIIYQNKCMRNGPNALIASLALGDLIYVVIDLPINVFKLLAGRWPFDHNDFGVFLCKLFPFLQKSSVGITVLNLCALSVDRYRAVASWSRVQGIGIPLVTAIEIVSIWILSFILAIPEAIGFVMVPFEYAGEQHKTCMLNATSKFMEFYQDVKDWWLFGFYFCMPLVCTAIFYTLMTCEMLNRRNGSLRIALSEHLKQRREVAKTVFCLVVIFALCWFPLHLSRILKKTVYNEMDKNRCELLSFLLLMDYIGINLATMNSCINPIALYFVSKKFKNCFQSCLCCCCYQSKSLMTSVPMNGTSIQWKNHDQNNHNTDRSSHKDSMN
The description is as above. As to conditions: ETA R232^ECL2A mutant vs WT.
Text: as §1

B1: Fab301: ETA-specific antibody Fab fragment produced from Getagozumab (antibody, V domains shown)
VH: QVTLKESGPTLVKPTQTLTLTCTFSGFSLTTSGLGVAWIRQPPGKALEWLAHIWSDGDTRYYPALKNRLTITKDTSKNQVVLTMTNMDPVDTATYYCAHMKDDSLYFDNWGQGTLVTVSS
VL: EIVLTQSPDFQSVTPKEKVTITCRASQNIGTSIHWYQQKPDQYPKLLIKYASKSISGVPSRFSGSGSGTDFTLTINSLEAEDAATYYCQHSYSFPWTFGQGTKVEIK
For the molecule B1, the “Effect on ET-1-induced ETA signaling” value with ETA WT was “antagonistic effects”. Besides, the “Fab301's binding to ETA” value with ETA G233^ECL2A and with ETA R232^ECL2A was “near-complete loss” in each case.
